Test results: patent US20150344570A1 (published 2015)

T1: FcγRIIb (human, UniProt P31994 43-217)
T1 construct: extracellular domain; also called FcgRIIb; 2b
T1 sequence (looked up): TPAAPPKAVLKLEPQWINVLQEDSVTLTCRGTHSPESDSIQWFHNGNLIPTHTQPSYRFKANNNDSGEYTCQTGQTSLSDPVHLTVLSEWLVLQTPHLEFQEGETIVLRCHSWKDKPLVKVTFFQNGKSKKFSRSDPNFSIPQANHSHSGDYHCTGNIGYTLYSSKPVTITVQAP

T2: FcγRIIb, extracellular domain with C-terminal His tag (human, UniProt P31994 43-217)
T2 construct: extracellular domain; also called 2b; FcgRIIb; not shown: His tag at the C terminus
T2 sequence (looked up): T1 sequence (looked up)

T3: FcγRIIa R (FcγRIIa allotype with Arg at position 131), extracellular domain with C-terminal His tag (human, UniProt P12318 34-217)
T3 construct: extracellular domain; made in FreeStyle293 cells; analyte in the Biacore assay; also called FcγRIIa type R; 2aR
T3 sequence (looked up): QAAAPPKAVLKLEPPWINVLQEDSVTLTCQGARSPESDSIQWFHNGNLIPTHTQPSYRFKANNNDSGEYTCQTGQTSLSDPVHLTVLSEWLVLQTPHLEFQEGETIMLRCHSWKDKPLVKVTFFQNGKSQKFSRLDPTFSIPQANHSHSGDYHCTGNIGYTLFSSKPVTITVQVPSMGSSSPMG

T4: FcγRIIb, extracellular domain with C-terminal His tag (human, UniProt P31994 43-217)
T4 construct: extracellular domain; made in FreeStyle293 cells; analyte in the Biacore assay; also called 2b; FcgRIIb
T4 sequence (looked up): T1 sequence (looked up)

B1: GpH7-A5/GpH7-B3 variant A327_09D/GpL16-k0 (antibody, human IgG1, kappa)
heavy 1: not shown
heavy 2: not shown
light: DIVMTQSPLSLPVTPGEPASISCQASESLVHSNRNTYLHWYLQKPGQSPQLLIYKVSNRFSGVPDRFSGSGSGTDFTLKISRVEAEDVGVYYCSQNTHVPPTFGQGTKVEIERTVAAPSVFIFPPSDEQLKSGTASVVCLLNNFYPREAKVQWKVDNALQSGNSQESVTEQDSKDSTYSLSSTLTLSKADYEKHKVYACEVTHQGLSSPVTKSFNRGEC
notes: mutation in the GpH7-B3 chain only; also called He Ab
B2: GpH7-A5/GpH7-B3 variant I332_04F/GpL16-k0 (antibody, human IgG1, kappa)
heavy 1: not shown
heavy 2: not shown
light: B1 light
notes: as for B1
B3: GpH7-A5/GpH7-B3 variant L328_03V/GpL16-k0 (antibody, human IgG1, kappa)
heavy 1: not shown
heavy 2: not shown
light: B1 light
notes: as for B1
B4: GpH7-A5/GpH7-B3 variant A327_10E/GpL16-k0 (antibody, human IgG1, kappa)
heavy 1: not shown
heavy 2: not shown
light: B1 light
notes: as for B1
B5: GpH7-A5/GpH7-B3 variant A327_18N/GpL16-k0 (antibody, human IgG1, kappa)
heavy 1: not shown
heavy 2: not shown
light: B1 light
notes: as for B1
B6: GpH7-A5/GpH7-B3 variant L328_02A/GpL16-k0 (antibody, human IgG1, kappa)
heavy 1: not shown
heavy 2: not shown
light: B1 light
notes: as for B1
B7: GpH7-A5/GpH7-B3 variant K334_12R/GpL16-k0 (antibody, human IgG1, kappa)
heavy 1: not shown
heavy 2: not shown
light: B1 light
notes: as for B1
B8: GpH7-A5/GpH7-B3 variant L328_04F/GpL16-k0 (antibody, human IgG1, kappa)
heavy 1: not shown
heavy 2: not shown
light: B1 light
notes: as for B1
B9: GpH7-A5/GpH7-B3 variant A327_07I/GpL16-k0 (antibody, human IgG1, kappa)
heavy 1: not shown
heavy 2: not shown
light: B1 light
notes: as for B1
B10: GpH7-A5/GpH7-B3 variant A330_01G/GpL16-k0 (antibody, human IgG1, kappa)
heavy 1: not shown
heavy 2: not shown
light: B1 light
notes: as for B1
B11: GpH7-A5/GpH7-B3 variant S267_12R/GpL16-k0 (antibody, human IgG1, kappa)
heavy 1: not shown
heavy 2: not shown
light: B1 light
notes: He Ab; alteration in one H chain only; also called He Ab
B12: GpH7-A5/GpH7-B3 variant S267_11K/GpL16-k0 (antibody, human IgG1, kappa)
heavy 1: not shown
heavy 2: not shown
light: B1 light
notes: as for B11
B13: GpH7-A5/GpH7-B3 variant S239_14T/GpL16-k0 (antibody, human IgG1, kappa)
heavy 1: not shown
heavy 2: not shown
light: B1 light
notes: heterodimerized IgG1, mutation in one H chain only; also called He Ab
B14: GpH7-A5/GpH7-B3 variant Y300_04F/GpL16-k0 (antibody, human IgG1, kappa)
heavy 1: not shown
heavy 2: not shown
light: B1 light
notes: as for B13
B15: GpH7-A5/GpH7-B3 variant S337_11K/GpL16-k0 (antibody, human IgG1, kappa)
heavy 1: not shown
heavy 2: not shown
light: B1 light
notes: as for B13
B16: GpH7-A5/GpH7-B3 variant Y296_04F/GpL16-k0 (antibody, human IgG1, kappa)
heavy 1: not shown
heavy 2: not shown
light: B1 light
notes: as for B13
B17: GpH7-A5/GpH7-B3 variant Y300_18N/GpL16-k0 (antibody, human IgG1, kappa)
heavy 1: not shown
heavy 2: not shown
light: B1 light
notes: as for B13
B18: GpH7-A5/GpH7-B3 variant Y296_19Q/GpL16-k0 (antibody, human IgG1, kappa)
heavy 1: not shown
heavy 2: not shown
light: B1 light
notes: as for B13
B19: GpH7-A5/GpH7-B3 variant S337_06M/GpL16-k0 (antibody, human IgG1, kappa)
heavy 1: not shown
heavy 2: not shown
light: B1 light
notes: as for B13

Target: T5, FcγRIIIa (human, UniProt P08637 17-208)
T5 construct: extracellular domain; also called FcgRIIIa; 3a
T5 sequence (P08637 17-208): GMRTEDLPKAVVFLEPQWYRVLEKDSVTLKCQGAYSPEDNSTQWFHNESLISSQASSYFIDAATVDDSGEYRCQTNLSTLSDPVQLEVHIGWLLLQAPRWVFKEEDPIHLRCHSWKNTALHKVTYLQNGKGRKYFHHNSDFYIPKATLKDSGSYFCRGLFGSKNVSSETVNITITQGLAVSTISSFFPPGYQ
Assay: SPR (Biacore), relative binding

| He/Con_3a | Binder |
| --- | --- |
| 83.7 % of GpH7-A5/GpH7-B3/GpL16-k0 | B1 |
| 97.6 % of GpH7-A5/GpH7-B3/GpL16-k0 | B2 |
| 78.7 % of GpH7-A5/GpH7-B3/GpL16-k0 | B3 |
| 68.6 % of GpH7-A5/GpH7-B3/GpL16-k0 | B4 |
| 61.1 % of GpH7-A5/GpH7-B3/GpL16-k0 | B5 |
| 79.1 % of GpH7-A5/GpH7-B3/GpL16-k0 | B6 |
| 90.8 % of GpH7-A5/GpH7-B3/GpL16-k0 | B7 |
| 79.3 % of GpH7-A5/GpH7-B3/GpL16-k0 | B8 |
| 42.4 % of GpH7-A5/GpH7-B3/GpL16-k0 | B9 |
| 89.1 % of GpH7-A5/GpH7-B3/GpL16-k0 | B10 |

Target: T1, FcγRIIb
Assay: SPR (Biacore), relative binding

| He/Con_2b | Binder |
| --- | --- |
| 172 % of GpH7-A5/GpH7-B3/GpL16-k0 | B1 |
| 104 % of GpH7-A5/GpH7-B3/GpL16-k0 | B2 |
| 126 % of GpH7-A5/GpH7-B3/GpL16-k0 | B3 |
| 140 % of GpH7-A5/GpH7-B3/GpL16-k0 | B4 |
| 113 % of GpH7-A5/GpH7-B3/GpL16-k0 | B5 |
| 144 % of GpH7-A5/GpH7-B3/GpL16-k0 | B6 |
| 111 % of GpH7-A5/GpH7-B3/GpL16-k0 | B7 |
| 219 % of GpH7-A5/GpH7-B3/GpL16-k0 | B8 |
| 127 % of GpH7-A5/GpH7-B3/GpL16-k0 | B9 |
| 104 % of GpH7-A5/GpH7-B3/GpL16-k0 | B10 |

Target: T2, FcγRIIb, extracellular domain with …
Assay: SPR (Biacore), relative binding, GpH7-A5/GpH7-B3/GpL16-k0 = 100

| He/Con_2b | Binder |
| --- | --- |
| 11.3 % of control | B11 |
| 12.2 % of control | B12 |

Target: T3, FcγRIIa R (FcγRIIa allotype with Arg at …)
Assay: SPR (Biacore), antibody captured, FcγR analyte; vs GpH7-A5/GpH7-B3/GpL16-k0 = 100
Experimental: (§1) The heterodimerized antibodies He Abs in which one of the H chains was introduced with an alteration were assayed for their binding activities to each activating FcγR and inhibitory FcγR according to the method described in Example 4. […] The activating FcγRs in FIGS. 26, 27, 28, and 29 are FcγRIa, FcγRIIa (R), FcγRIIa (H), and FcγRIIIa, respectively.
(§2) Analysis of interaction between objective antibody and the FcγR was carried out using Biacore T100 (GE Healthcare). HBS-EP+ (GE Healthcare) was used as the running buffer, and the measurement temperature was set to 25° C. Chips produced by immobilizing the antigen peptide by the amine coupling method to a Series S Sencor Chip CM5 (GE Healthcare), or alternatively, chips produced by allowing preliminarily biotinylated antigen peptides to interact with and immobilize onto a Series S Sensor Chip SA (certified) (GE Healthcare) were used. Antibodies of interest were captured onto an antigen peptide-immobilized chip, and allowed to interact to each FcγR diluted with running buffer. To regenerate and repeatedly use the chip, the antibodies captured on the chip were washed off by reacting 10 mM glycine-HCl, pH 1.5.

| He/Con_2aR | Binder |
| --- | --- |
| 103 relative (HeCon Ab = 100) | B13 |
| 108 relative (HeCon Ab = 100) | B14 |
| 103 relative (HeCon Ab = 100) | B15 |
| 109 relative (HeCon Ab = 100) | B16 |
| 100 relative (HeCon Ab = 100) | B17 |
| 102 relative (HeCon Ab = 100) | B18 |
| 105 relative (HeCon Ab = 100) | B19 |

Target: T4, FcγRIIb, extracellular domain with …
Assay: as above
Experimental: as §1, §2

| He/Con_2b | Binder |
| --- | --- |
| 97.3 relative (HeCon Ab = 100) | B13 |
| 94.8 relative (HeCon Ab = 100) | B14 |
| 94.3 relative (HeCon Ab = 100) | B15 |
| 99.2 relative (HeCon Ab = 100) | B16 |
| 82.7 relative (HeCon Ab = 100) | B17 |
| 89.3 relative (HeCon Ab = 100) | B18 |
| 96.7 relative (HeCon Ab = 100) | B19 |
